Tests used:
Assay in all cases: SEC + native gel or EMSA; SEC: Superdex S200 10/300 GL, PBS pH 7.4, approximately 500 ul of 1 mg/ml protein injected, UV 280 nm; semi-native PAGE: 12% SDS-PAGE, Laemmli buffer with 0.2% SDS and 12.5 mM EDTA, no beta-mercaptoethanol, samples not heated; monomer to dimer
sfGFP-N149Y = molecular target: sfGFP-N149Y
sfGFP-N149Y/Q204H = molecular target: sfGFP-N149Y/Q204H
sfGFP-N149Y/Q204H/I167T = molecular target: sfGFP-N149Y/Q204H/I167T
[1] = molecular target: sfGFP-N149Y/Q204H/I167T/I188V
sfGFP-N149Y/Q204H/I188V = molecular target: sfGFP-N149Y/Q204H/I188V
sfGFP-Q204H = molecular target: sfGFP-Q204H

Substance: sfGFP-N149Y
- stoichiometry N (sfGFP-N149Y): 2

Substance: sfGFP-N149Y/Q204H
- stoichiometry N (sfGFP-N149Y/Q204H): 2

Substance: sfGFP-N149Y/Q204H/I167T
- stoichiometry N (sfGFP-N149Y/Q204H/I167T): 2

Substance: sfGFP-N149Y/Q204H/I167T/I188V
- stoichiometry N [1]: 2

Substance: sfGFP-N149Y/Q204H/I188V
- stoichiometry N (sfGFP-N149Y/Q204H/I188V): 2

Substance: sfGFP-Q204H
- stoichiometry N (sfGFP-Q204H): 2
